Where two headings read alike, the source gives them in different places.
Legend:
Test in all cases: cell-based or functional assay
[1] = target: wild type human TSHR (human) (UniProt P16473)
[2] = target: TSHR with Phe134 mutated to Alanine (human) (UniProt P16473)
[3] = target: wild type human TSHR (human) (UniProt P16473); remark: listed apart in the source
[4] = target: TSHR with Thr104 mutated to Alanine (human) (UniProt P16473)
[5] = target: wild type human TSHR (human) (UniProt P16473); remark: listed apart in the source
[6] = target: TSHR with Lys129 mutated to Alanine (human) (UniProt P16473)
[7] = target: wild type human TSHR (human) (UniProt P16473); remark: listed apart in the source
[8] = target: TSHR with Ser281 mutated to Alanine (human) (UniProt P16473)
[9] = target: wild type human TSHR (human) (UniProt P16473); remark: listed apart in the source
[10] = target: TSHR with Asp151 mutated to Alanine (human) (UniProt P16473)

5C9 IgG (antibody), sequence (VH): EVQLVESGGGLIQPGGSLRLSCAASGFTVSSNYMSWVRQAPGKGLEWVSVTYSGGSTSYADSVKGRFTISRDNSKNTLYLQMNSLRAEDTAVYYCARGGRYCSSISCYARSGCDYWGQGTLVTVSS
5C9 IgG (antibody), sequence (VL): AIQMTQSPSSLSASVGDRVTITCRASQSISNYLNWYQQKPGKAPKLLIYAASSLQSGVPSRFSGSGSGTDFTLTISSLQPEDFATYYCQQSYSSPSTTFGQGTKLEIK

Substance: 5C9 IgG (antibody)
- cyclic AMP; 5C9 0.01 µg/mL + TSH (fmol/cell well) [1]: 13600
- cyclic AMP; 5C9 0.1 µg/mL + TSH (fmol/cell well) [1]: 8700
- cyclic AMP; 5C9 1.0 µg/mL + TSH (fmol/cell well) [1]: 4540
- cyclic AMP; 5C9 10 µg/mL + TSH (fmol/cell well) [1]: 2390
- cyclic AMP; 5C9 100 µg/mL + TSH (fmol/cell well) [1]: 1390
- cyclic AMP; 5C9 100 µg/mL only (fmol/cell well) [1]: 212
- Mutated/wild type (%); 5C9 0.01 µg/mL + TSH [2]: 117%
- Mutated/wild type (%); 5C9 0.1 µg/mL + TSH [2]: 73%
- Mutated/wild type (%); 5C9 1.0 µg/mL + TSH [2]: 43%
- Mutated/wild type (%); 5C9 10 µg/mL + TSH [2]: 44%
- Mutated/wild type (%); 5C9 100 µg/mL + TSH [2]: 77%
- Mutated/wild type (%); 5C9 100 µg/mL only [2]: 159%
- cyclic AMP; 5C9 0.01 µg/mL + TSH (fmol/cell well) [2]: 15900
- cyclic AMP; 5C9 0.1 µg/mL + TSH (fmol/cell well) [2]: 6370
- cyclic AMP; 5C9 1.0 µg/mL + TSH (fmol/cell well) [2]: 1940
- cyclic AMP; 5C9 10 µg/mL + TSH (fmol/cell well) [2]: 1060
- cyclic AMP; 5C9 100 µg/mL + TSH (fmol/cell well) [2]: 1070
- cyclic AMP; 5C9 100 µg/mL only (fmol/cell well) [2]: 337
- cyclic AMP; 5C9 0.01 µg/mL + TSH (fmol/cell well) [3]: 12300
- cyclic AMP; 5C9 1.0 µg/mL + TSH (fmol/cell well) [3]: 3700
- cyclic AMP; 5C9 10 µg/mL + TSH (fmol/cell well) [3]: 1800
- cyclic AMP; 5C9 100 µg/mL + TSH (fmol/cell well) [3]: 2220
- cyclic AMP; 5C9 100 µg/mL only (fmol/cell well) [3]: 195
- Mutated/wild type (%); 5C9 0.01 µg/mL + TSH [4]: 95%
- Mutated/wild type (%); 5C9 0.1 µg/mL + TSH [4]: 134%
- Mutated/wild type (%); 5C9 1.0 µg/mL + TSH [4]: 168%
- Mutated/wild type (%); 5C9 10 µg/mL + TSH [4]: 172%
- Mutated/wild type (%); 5C9 100 µg/mL + TSH [4]: 140%
- Mutated/wild type (%); 5C9 100 µg/mL only [4]: 135%
- cyclic AMP; 5C9 0.01 µg/mL + TSH (fmol/cell well) [4]: 11700
- cyclic AMP; 5C9 0.1 µg/mL + TSH (fmol/cell well) [4]: 9510
- cyclic AMP; 5C9 1.0 µg/mL + TSH (fmol/cell well) [4]: 6200
- cyclic AMP; 5C9 10 µg/mL + TSH (fmol/cell well) [4]: 3090
- cyclic AMP; 5C9 100 µg/mL + TSH (fmol/cell well) [4]: 3110
- cyclic AMP; 5C9 100 µg/mL only (fmol/cell well) [4]: 264
- cyclic AMP; 5C9 0.01 µg/mL + TSH (fmol/cell well) [5]: 10500
- cyclic AMP; 5C9 0.1 µg/mL + TSH (fmol/cell well) [5]: 2710
- cyclic AMP; 5C9 1.0 µg/mL + TSH (fmol/cell well) [5]: 1010
- cyclic AMP; 5C9 10 µg/mL + TSH (fmol/cell well) [5]: 548
- cyclic AMP; 5C9 100 µg/mL + TSH (fmol/cell well) [5]: 491
- cyclic AMP; 5C9 100 µg/mL only (fmol/cell well) [5]: 107
- Mutated/wild type (%); 5C9 0.01 µg/mL + TSH [6]: 115%
- Mutated/wild type (%); 5C9 0.1 µg/mL + TSH [6]: 488%
- Mutated/wild type (%); 5C9 1.0 µg/mL + TSH [6]: 1270%
- Mutated/wild type (%); 5C9 10 µg/mL + TSH [6]: 2040%
- Mutated/wild type (%); 5C9 100 µg/mL + TSH [6]: 3240%
- Mutated/wild type (%); 5C9 100 µg/mL only [6]: 203%
- cyclic AMP; 5C9 0.01 µg/mL + TSH (fmol/cell well) [6]: 12200
- cyclic AMP; 5C9 0.1 µg/mL + TSH (fmol/cell well) [6]: 13300
- cyclic AMP; 5C9 1.0 µg/mL + TSH (fmol/cell well) [6]: 12800
- cyclic AMP; 5C9 10 µg/mL + TSH (fmol/cell well) [6]: 11200
- cyclic AMP; 5C9 100 µg/mL + TSH (fmol/cell well) [6]: 15900
- cyclic AMP; 5C9 100 µg/mL only (fmol/cell well) [6]: 217
- cyclic AMP; 5C9 0.01 µg/mL + TSH (fmol/cell well) [7]: 13800
- cyclic AMP; 5C9 0.1 µg/mL + TSH (fmol/cell well) [7]: 9070
- cyclic AMP; 5C9 1.0 µg/mL + TSH (fmol/cell well) [7]: 3730
- cyclic AMP; 5C9 10 µg/mL + TSH (fmol/cell well) [7]: 802
- cyclic AMP; 5C9 100 µg only (fmol/cell well) [7]: 201
- cyclic AMP; 5C9 100 µg/mL + TSH (fmol/cell well) [7]: 1080
- Mutated/wild type (%); 5C9 0.01 µg/mL + TSH [8]: 210%
- Mutated/wild type (%); 5C9 0.1 µg/mL + TSH [8]: 172%
- Mutated/wild type (%); 5C9 1.0 µg/mL + TSH [8]: 95%
- Mutated/wild type (%); 5C9 10 µg/mL + TSH [8]: 193%
- Mutated/wild type (%); 5C9 100 µg only [8]: 391%
- Mutated/wild type (%); 5C9 100 µg/mL + TSH [8]: 149%
- cyclic AMP; 5C9 0.01 µg/mL + TSH (fmol/cell well) [8]: 29000
- cyclic AMP; 5C9 0.1 µg/mL + TSH (fmol/cell well) [8]: 15600
- cyclic AMP; 5C9 1.0 µg/mL + TSH (fmol/cell well) [8]: 3550
- cyclic AMP; 5C9 10 µg/mL + TSH (fmol/cell well) [8]: 1550
- cyclic AMP; 5C9 100 µg only (fmol/cell well) [8]: 785
- cyclic AMP; 5C9 100 µg/mL + TSH (fmol/cell well) [8]: 1600
- cyclic AMP; 5C9 0.01 µg/mL + TSH (fmol/cell well) [9]: 11200
- cyclic AMP; 5C9 0.1 µg/mL + TSH (fmol/cell well) [9]: 6950
- cyclic AMP; 5C9 1.0 µg/mL + TSH (fmol/cell well) [9]: 1390
- cyclic AMP; 5C9 10 µg/mL + TSH (fmol/cell well) [9]: 380
- cyclic AMP; 5C9 100 µg/mL + TSH (fmol/cell well) [9]: 945
- cyclic AMP; 5C9 100 µg/mL only (fmol/cell well) [9]: 176
- Mutated/wild type (%); 5C9 0.01 µg/mL + TSH [10]: 112%
- Mutated/wild type (%); 5C9 0.1 µg/mL + TSH [10]: 143%
- Mutated/wild type (%); 5C9 1.0 µg/mL + TSH [10]: 465%
- Mutated/wild type (%); 5C9 10 µg/mL + TSH [10]: 599%
- Mutated/wild type (%); 5C9 100 µg/mL + TSH [10]: 162%
- Mutated/wild type (%); 5C9 100 µg/mL only [10]: 224%
- cyclic AMP; 5C9 0.01 µg/mL + TSH (fmol/cell well) [10]: 12600
- cyclic AMP; 5C9 0.1 µg/mL + TSH (fmol/cell well) [10]: 9960
- cyclic AMP; 5C9 1.0 µg/mL + TSH (fmol/cell well) [10]: 6450
- cyclic AMP; 5C9 10 µg/mL + TSH (fmol/cell well) [10]: 2280
- cyclic AMP; 5C9 100 µg/mL + TSH (fmol/cell well) [10]: 1540
- cyclic AMP; 5C9 100 µg/mL only (fmol/cell well) [10]: 395
